Test results: the supplement of paper PMC7125110
± gives the standard error. For some of these results: Fewer inactive variants are shown than the library holds.

B1: glmS ribozyme (parent)
chain: AUAAAAGCGCCAGAACUACAGAAAUGUAGUUGACGAGGAGGAGGUUUAUCGAAUUUUCGGCGGAUGCCUCCAAA

Assays:
Settings in all cases: with glucosamine-6-phosphate
glucosamine-6-phosphate [1] = variants of: B1; test: kcat; higher = faster cleavage; RNA array
Procedure, shortened: (§1)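 On sequenced MiSeq chips, barcoded ribozyme variants were made in situ by E. coli RNA polymerase and followed at 37 °C through a hybridised Cy3 probe. Glucosamine-6-phosphate was flowed in at 40 μM to 10 mM in HEPES/KCl/Mg(OAc)2 buffer. Exponential fits to normalised per-tile medians gave kobs, and weighted Michaelis–Menten fits gave kcat and KM.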

glucosamine-6-phosphate [2] = variants of: B1; test: self-cleavage kobs at 40 uM GlcN6P; higher = faster cleavage; RNA array
Procedure, shortened: as §1

glucosamine-6-phosphate [3] = variants of: B1; test: self-cleavage kobs at 160 uM GlcN6P; higher = faster cleavage; RNA array
Procedure, shortened: as §1

glucosamine-6-phosphate [4] = variants of: B1; test: self-cleavage kobs at 640 uM GlcN6P; higher = faster cleavage; RNA array
Procedure, shortened: as §1

glucosamine-6-phosphate [5] = variants of: B1; test: self-cleavage kobs at 2500 uM GlcN6P; higher = faster cleavage; RNA array
Procedure, shortened: as §1

glucosamine-6-phosphate [6] = variants of: B1; test: self-cleavage kobs at 10000 uM GlcN6P; higher = faster cleavage; RNA array
Procedure, shortened: as §1

glucosamine-6-phosphate [7] = variants of: B1; test: KM; higher = weaker cofactor use; RNA array
Procedure, shortened: as §1

Q: For G41A G66A, which kcat (glucosamine-6-phosphate [1]) is on record?
A: Its kcat is 0.0028 ± 0.0014 s⁻¹.

Q: What about the “self-cleavage kobs at 40 uM GlcN6P” value (glucosamine-6-phosphate [2]) of the same variant?
A: The value was 6.67e-05 ± 1.2e-05 s⁻¹.

Q: And the “self-cleavage kobs at 160 uM GlcN6P” value (glucosamine-6-phosphate [3])?
A: Its value is 0.000116 ± 3.7e-05 s⁻¹.

Q: What about the “self-cleavage kobs at 640 uM GlcN6P” value (glucosamine-6-phosphate [4]) of the same variant?
A: The value was 0.000562 ± 8.6e-05 s⁻¹.

Q: What about the “self-cleavage kobs at 2500 uM GlcN6P” value (glucosamine-6-phosphate [5]) of the same variant?
A: Its value is 0.000832 ± 0.00018 s⁻¹.

Q: What about the “self-cleavage kobs at 10000 uM GlcN6P” value (glucosamine-6-phosphate [6]) of the same variant?
A: The value was 0.0028 ± 0.00037 s⁻¹.

Q: What does the source list for U45C C70G?
A: kcat (glucosamine-6-phosphate [1]): 0.00245 ± 0.00063 s⁻¹; self-cleavage kobs at 160 uM GlcN6P (glucosamine-6-phosphate [3]): 3.27e-05 ± 1.6e-05 s⁻¹; self-cleavage kobs at 640 uM GlcN6P (glucosamine-6-phosphate [4]): 8.88e-05 ± 3.7e-05 s⁻¹; self-cleavage kobs at 2500 uM GlcN6P (glucosamine-6-phosphate [5]): 0.000381 ± 7.3e-05 s⁻¹; self-cleavage kobs at 10000 uM GlcN6P (glucosamine-6-phosphate [6]): 0.001 ± 0.00025 s⁻¹

Q: What does the source list for A33U C67G C68G?
A: kcat (glucosamine-6-phosphate [1]): 9.15e-05 ± 1.3e-05 s⁻¹; self-cleavage kobs at 40 uM GlcN6P (glucosamine-6-phosphate [2]): 6.63e-05 ± 2e-05 s⁻¹; self-cleavage kobs at 160 uM GlcN6P (glucosamine-6-phosphate [3]): 4.67e-05 ± 1.9e-05 s⁻¹; self-cleavage kobs at 640 uM GlcN6P (glucosamine-6-phosphate [4]): 0.000106 ± 1.7e-05 s⁻¹; self-cleavage kobs at 2500 uM GlcN6P (glucosamine-6-phosphate [5]): 9.54e-05 ± 1.6e-05 s⁻¹; self-cleavage kobs at 10000 uM GlcN6P (glucosamine-6-phosphate [6]): 7.94e-05 ± 2e-05 s⁻¹

Q: With G32A A42G as the variant, how does the kcat (glucosamine-6-phosphate [1]) read?
A: Its kcat is 0.00505 ± 0.0014 s⁻¹.

Q: And the KM (glucosamine-6-phosphate [7])?
A: Its KM is 3140 ± 1200 µM.

Q: And the “self-cleavage kobs at 40 uM GlcN6P” value (glucosamine-6-phosphate [2])?
A: Its value is 7.49e-05 ± 1.3e-05 s⁻¹.

Q: And the “self-cleavage kobs at 160 uM GlcN6P” value (glucosamine-6-phosphate [3])?
A: Its value is 0.000193 ± 3.2e-05 s⁻¹.

Q: What about the “self-cleavage kobs at 640 uM GlcN6P” value (glucosamine-6-phosphate [4]) of the same variant?
A: The value was 0.00133 ± 0.00025 s⁻¹.

Q: And the “self-cleavage kobs at 2500 uM GlcN6P” value (glucosamine-6-phosphate [5])?
A: Its value is 0.00281 ± 0.00043 s⁻¹.

Q: What about the “self-cleavage kobs at 10000 uM GlcN6P” value (glucosamine-6-phosphate [6]) of the same variant?
A: Its value is 0.00357 ± 0.00047 s⁻¹.

Q: What does the source list for G44A U45C?
A: kcat (glucosamine-6-phosphate [1]): 0.000855 ± 6.9e-05 s⁻¹; KM (glucosamine-6-phosphate [7]): 2540 ± 420 µM; self-cleavage kobs at 160 uM GlcN6P (glucosamine-6-phosphate [3]): 4.01e-05 ± 1.9e-05 s⁻¹; self-cleavage kobs at 640 uM GlcN6P (glucosamine-6-phosphate [4]): 0.000171 ± 2.7e-05 s⁻¹; self-cleavage kobs at 2500 uM GlcN6P (glucosamine-6-phosphate [5]): 0.000496 ± 0.00011 s⁻¹; self-cleavage kobs at 10000 uM GlcN6P (glucosamine-6-phosphate [6]): 0.000674 ± 6.5e-05 s⁻¹

Q: With G40U U45C C70U as the variant, how does the kcat (glucosamine-6-phosphate [1]) read?
A: Its kcat is 0.000444 ± 6.4e-05 s⁻¹.

Q: And the KM (glucosamine-6-phosphate [7])?
A: The KM was 1000 ± 370 µM.

Q: And the “self-cleavage kobs at 640 uM GlcN6P” value (glucosamine-6-phosphate [4])?
A: The value was 0.000186 ± 3.9e-05 s⁻¹.

Q: What about the “self-cleavage kobs at 2500 uM GlcN6P” value (glucosamine-6-phosphate [5]) of the same variant?
A: The value was 0.00025 ± 8.8e-05 s⁻¹.

Q: What about the “self-cleavage kobs at 10000 uM GlcN6P” value (glucosamine-6-phosphate [6]) of the same variant?
A: The value was 0.000426 ± 7.7e-05 s⁻¹.

Q: A14G A15C was tested. Which kcat (glucosamine-6-phosphate [1]) did it give?
A: The kcat was 0.0193 ± 0.0062 s⁻¹.

Q: What about the KM (glucosamine-6-phosphate [7]) of the same variant?
A: Its KM is 584 ± 270 µM.

Q: What about the “self-cleavage kobs at 40 uM GlcN6P” value (glucosamine-6-phosphate [2]) of the same variant?
A: The value was 0.00141 ± 0.00023 s⁻¹.

Q: What about the “self-cleavage kobs at 160 uM GlcN6P” value (glucosamine-6-phosphate [3]) of the same variant?
A: The value was 0.00312 ± 0.00073 s⁻¹.

Q: What about the “self-cleavage kobs at 640 uM GlcN6P” value (glucosamine-6-phosphate [4]) of the same variant?
A: The value was 0.0155 ± 0.0029 s⁻¹.

Q: And the “self-cleavage kobs at 2500 uM GlcN6P” value (glucosamine-6-phosphate [5])?
A: The value was 0.012 ± 0.0039 s⁻¹.

Q: What about the “self-cleavage kobs at 10000 uM GlcN6P” value (glucosamine-6-phosphate [6]) of the same variant?
A: Its value is 0.0199 ± 0.0053 s⁻¹.

Q: Which results are given for U46C A53U U65G?
A: kcat (glucosamine-6-phosphate [1]): 0.000127 ± 3.1e-05 s⁻¹; KM (glucosamine-6-phosphate [7]): 6880 ± 2800 µM; self-cleavage kobs at 2500 uM GlcN6P (glucosamine-6-phosphate [5]): 3.28e-05 ± 1.2e-05 s⁻¹; self-cleavage kobs at 10000 uM GlcN6P (glucosamine-6-phosphate [6]): 7.63e-05 ± 2.5e-05 s⁻¹

Q: For G29U A33U, which kcat (glucosamine-6-phosphate [1]) is on record?
A: The kcat was 6.61e-05 ± 1.9e-06 s⁻¹.

Q: And the KM (glucosamine-6-phosphate [7])?
A: The KM was 3280 ± 300 µM.

Q: What about the “self-cleavage kobs at 2500 uM GlcN6P” value (glucosamine-6-phosphate [5]) of the same variant?
A: Its value is 2.87e-05 ± 9.6e-06 s⁻¹.

Q: And the “self-cleavage kobs at 10000 uM GlcN6P” value (glucosamine-6-phosphate [6])?
A: The value was 4.97e-05 ± 6.7e-06 s⁻¹.

Q: What does the source list for G13U G41U?
A: kcat (glucosamine-6-phosphate [1]): 7.91e-05 ± 6.7e-06 s⁻¹; KM (glucosamine-6-phosphate [7]): 4150 ± 890 µM; self-cleavage kobs at 2500 uM GlcN6P (glucosamine-6-phosphate [5]): 3.07e-05 ± 8.6e-06 s⁻¹; self-cleavage kobs at 10000 uM GlcN6P (glucosamine-6-phosphate [6]): 5.57e-05 ± 8.2e-06 s⁻¹

Q: What does the source list for U49A A64G?
A: kcat (glucosamine-6-phosphate [1]): 2.04e-05 ± 1.6e-06 s⁻¹; KM (glucosamine-6-phosphate [7]): 2090 ± 850 µM

Q: For A6G, which kcat (glucosamine-6-phosphate [1]) is on record?
A: Its kcat is 0.00068 ± 9.8e-05 s⁻¹.

Q: What about the KM (glucosamine-6-phosphate [7]) of the same variant?
A: The KM was 2660 ± 490 µM.

Q: And the “self-cleavage kobs at 40 uM GlcN6P” value (glucosamine-6-phosphate [2])?
A: Its value is less than 1e-05 s⁻¹.

Q: What about the “self-cleavage kobs at 160 uM GlcN6P” value (glucosamine-6-phosphate [3]) of the same variant?
A: The value was 4.17e-05 ± 1.6e-06 s⁻¹.

Q: What about the “self-cleavage kobs at 640 uM GlcN6P” value (glucosamine-6-phosphate [4]) of the same variant?
A: Its value is 0.00013 ± 2.3e-06 s⁻¹.

Q: What about the “self-cleavage kobs at 2500 uM GlcN6P” value (glucosamine-6-phosphate [5]) of the same variant?
A: Its value is 0.000467 ± 4.5e-05 s⁻¹.

Q: What about the “self-cleavage kobs at 10000 uM GlcN6P” value (glucosamine-6-phosphate [6]) of the same variant?
A: The value was 0.000533 ± 2.4e-05 s⁻¹.

Q: For U47G U55A, which kcat (glucosamine-6-phosphate [1]) is on record?
A: The kcat was 0.00811 ± 0.0025 s⁻¹.

Q: And the KM (glucosamine-6-phosphate [7])?
A: The KM was 1410 ± 600 µM.

Q: What about the “self-cleavage kobs at 40 uM GlcN6P” value (glucosamine-6-phosphate [2]) of the same variant?
A: The value was 0.000281 ± 3.1e-05 s⁻¹.

Q: And the “self-cleavage kobs at 160 uM GlcN6P” value (glucosamine-6-phosphate [3])?
A: Its value is 0.000855 ± 0.00014 s⁻¹.

Q: What about the “self-cleavage kobs at 640 uM GlcN6P” value (glucosamine-6-phosphate [4]) of the same variant?
A: Its value is 0.00187 ± 0.00028 s⁻¹.

Q: And the “self-cleavage kobs at 2500 uM GlcN6P” value (glucosamine-6-phosphate [5])?
A: The value was 0.00514 ± 0.00081 s⁻¹.

Q: What about the “self-cleavage kobs at 10000 uM GlcN6P” value (glucosamine-6-phosphate [6]) of the same variant?
A: The value was 0.00878 ± 0.0013 s⁻¹.
